{"source": "patent US20080089862", "tested_on": "engineered beta-galactosidase reporter protein with the NS3-cleavable NS5A/B site between residues 2"}
{"substance": "MBP-scNS3 (E. coli maltose binding protein fused to the NS4A peptide followed by the NS3 protease domain)", "values": [{"measurement": "β-galactosidase units (ONPG hydrolysis, Miller units), pEB13-lacZ-NS5A/B + pMALc-NN-scNS3", "result": 20, "unit": "Miller units"}, {"measurement": "β-galactosidase units (ONPG hydrolysis, Miller units), pMGT14", "result": 60, "unit": "Miller units"}]}
{"substance": "MBP-scNS3mut (inactive mutant S-1165-A NS3)", "values": [{"measurement": "β-galactosidase units (ONPG hydrolysis, Miller units), pMGT15", "result": 160, "unit": "Miller units"}]}
